In series [1] the target is T1, recombinant GST-Flag-CERT(1-138) wild type fusion protein from E. coli.
T1 chain: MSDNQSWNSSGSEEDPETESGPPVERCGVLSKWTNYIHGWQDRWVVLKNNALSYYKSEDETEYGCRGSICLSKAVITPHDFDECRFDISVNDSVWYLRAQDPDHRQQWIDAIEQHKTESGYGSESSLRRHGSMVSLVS

Series [2] deals with T2, recombinant GST-Flag-CERT-S132A(1-138) fusion protein from E. coli.
T2 chain: T1 chain with S132A

Substitutions are numbered along the chain they refer to.

B1: purified PKD1 (protein)
chain: MSAPPVLRPPSPLLPVAAAAAAAAAALVPGSGPGPAPFLAPVAAPVGGISFHLQIGLSREPVLLLQDSSGDYSLAHVREMACSIVDQKFPECGFYGMYDKILLFRHDPTSENILQLVKAASDIQEGDLIEVVLSASATFEDFQIRPHALFVHSYRAPAFCDHCGEMLWGLVRQGLKCEGCGLNYHKRCAFKIPNNCSGVRRRRLSNVSLTGVSTIRTSSAELSTSAPDEPLLQKSPSESFIGREKRSNSQSYIGRPIHLDKILMSKVKVPHTFVIHSYTRPTVCQYCKKLLKGLFRQGLQCKDCRFNCHKRCAPKVPNNCLGEVTINGDLLSPGAESDVVMEEGSDDNDSERNSGLMDDMEEAMVQDAEMAMAECQNDSGEMQDPDPDHEDANRTISPSTSNNIPLMRVVQSVKHTKRKSSTVMKEGWMVHYTSKDTLRKRHYWRLDSKCITLFQNDTGSRYYKEIPLSEILSLEPVKTSALIPNGANPHCFEITTANVVYYVGENVVNPSSPSPNNSVLTSGVGADVARMWEIAIQHALMPVIPKGSSVGTGTNLHRDISVSISVSNCQIQENVDISTVYQIFPDEVLGSGQFGIVYGGKHRKTGRDVAIKIIDKLRFPTKQESQLRNEVAILQNLHHPGVVNLECMFETPERVFVVMEKLHGDMLEMILSSEKGRLPEHITKFLITQILVALRHLHFKNIVHCDLKPENVLLASADPFPQVKLCDFGFARIIGEKSFRRSVVGTPAYLAPEVLRNKGYNRSLDMWSVGVIIYVSLSGTFPFNEDEDIHDQIQNAAFMYPPNPWKEISHEAIDLINNLLQVKMRKRYSVDKTLSHPWLQDYQTWLDLRELECKIGERYITHESDDLRWEKYAGEQGLQYPTHLINPSASHSDTPETEETEMKALGERVSIL
For B1, the “incorporation of radioactivity ([γ-32P]-ATP, in vitro kinase assay)” value in series [1] is listed as “incorporation of radioactivity is detected”; in series [2], “This is significantly impaired in the case of the CERT-S132A fusion protein”.

The values above are taken from US20130177919.
